# Assay: soluble on expression in E. coli; label from the status in PepcDB or PDB records
row,Sequence,soluble on expression in E. coli
1,MASKRLGKQTVMLQNPPRITSTASIVGPKEGKGPLRLFFDNIIEDEMWGEKSWEKAESKLIRETFSKVLQKGNKTSQEIDYVISGDLLNQCIAANFGLRESDVPFFGVYGACSTIAESMSIGAMLVDGGFADNVVCITSSHFCSAEKQFRFPLELGTQRPPSAQWTVTGSGGVLISNDGSGPYITHITTGKIVDMGIKDANNMGAAMAPAAVDTIVTHFKDTGFTPESYDLILTGDLGAIGREICVELTREQGFNIENIYNDCGLMIYDREKQDTHAGGSGCGCAATVFAGFVYKKLMDGTLKNVLFVATGALLSPVSTQQGESIPSIAHAISITTSPER,soluble
2,MAGDPMITETQLTAIQTYALQKLAHDHSGHGRDHLQRVNRLARRLAKDEGANLNLTLAAAWLHDVIDDKLMANPAKAHQDLIVQLNAQNVTADDQTAIFAIIDHMSFSKSFNGPQKLSLEGQVVQDADRLDAIGAIGIARALYYSGHVGEKIYDPAIAPREHMTREQYRHQPGTAINHFYEKLFKLAALMNTDTAKALAAHRTAVMHEFVDQFKAEWTADDKALEHHHHHH,soluble
3,MKKAKSRIAILGTGGTIAGFIDSTIATTGYAAGAIDIDVLIKAVPQIRDLADISWEQIANIDSSNMCDEIWLRLAKKIAKLFAEGIDGVVITHGTDTMEETAYFLNLTIKSDKPVVLVGAMRPSTAISADGPKNLYNAVALVVNKEAKNKGVMVAINDKILSARGVVKTHSLNVDAFSSPDFGDLGYIVDGKVFFYNNVIKAHTKNAPFDVSKLTSLPKVDILYSYSNDGSGVAAKALFEHGTKGIVVAGSGAGSIHKNQKDVLKELLKKGLKVVVSSRVVAGCVAVSDSDEKLGFISAEDLNPQKARVLLMLALTKTSDPKKIQEYFLKY,soluble
4,MDLTLIIDNYDSFVYNIAQIVGELGSYPIVIRNDEISIKGIERIDPDRLIISPGPGTPEKREDIGVSLDVIKYLGKRTPILGVCLGHQAIGYAFGAKIRRARKVFHGKISNIILVNNSPLSLYYGIAKEFKATRYHSLVVDEVHRPLIVDAISAEDNEIMAIHHEEYPIYGVQFHPESVGTSLGYKILYNFLNRV,soluble
5,SLPLQQYRDFIDNQMLLLVAQRDRASRIFPHLYLGSEWNAANLEELQRNRVTHILNMAREIDNFYPERFTYHNVRLWDEESAQLLPHWKETHRFIEAARAQGTHVLVHCKMGVSRSAATVLAYAMKQYECSLEQALRHVQELRPIARPNPGFLRQLQIYQGILTART,not soluble
6,MGSDKIHHHHHHMHLGVVVPRVDDHSTIELAVEAEGHGYDSVWLNELWGASSVVELTDIATRTDDIEIGSAILNVFSRSPAVLAMTATTLDRVSDGRAVLGLGTSTARSIENMHSMEFERPVRRAHETIDIIKQLMTGDERVTYDGEAVSVRGVPPLDRDVPVYHAALGPANRRVVARLADGWLPHMIAFSELESAFDYIAETARDADRDPDDITVAPYVPAVVHEDSERATEELRQHIAYYVGSGEGYRRAVAETYPDRAERIADAWQAGDRGEATELVTDEMTADLGIAGTPEQAREKRDKIADRAVIDRLLLTVPQQVDGELARKTIRALGPN,not soluble
7,AHHHHHHGSKLMEVSPLFPCIFLRRVNRFVGLVRIKERIERALITNTGRLNEFMIPGRIGYCTPKAGGKTRYILLGFEDHGKIAIIDTRLQGKAFEKIIEKELLPELEGCRIIKREPRVGESRLDYLLECSKGEIFVETKSAVLREGEYAMYPDCPSVRGQRHIKELIKLARDGKRAMIVFIGALPNVSKFKPYKKGDPKIAELLKEALEAGVEIRALGLHMELSGEIIYRGELGVEI,soluble
8,MVVKEILRLLFLLAMYELGKYVTEQVYIMMTANDDVEAPSDYEKIRAEVSWLEHHHHHH,not soluble
9,MGSDKIHHHHHHMTYTSLQSPADKDYLYDIRVAHLYGNLLNTYGDNGNVLMLKYVGEKLGIRMTFDIVSIGDDFDANKYDMVFFGGGQDYEQSIVAKDLPNKRSAIASFIQNNKVVLAICGGFQLLGQYYVQANGVRIDGIGVMGHYTLNQKDNRYIGDIKIHNDEFNETYYGFENHQGRTFLSDDEKPLGRVIYGNGNNKEDGSEGVHYKNVFGSYFHGPILSRNANLAYRLVTTALHNKYGIDIQLPRYEDILSLEVAEEYGDVKSKAEFEK,not soluble
10,MGSDKIHHHHHHMIFLIFSILFLHLANCDYTPDWESLDNRPLPSWYDDSKFGIFCHWGLYSDDNDKNKKYKTRSEWMWWYWKGTQPDKDVVNFVDKNYKPGTTYADFAKDVCNILLFAIESDFCSLPQSISMRINLLKLYFVFTSKHHEGFTMWPSRTSWNWNSMDIGPKRDIVGELRDAFKKTDVHFGLYFSQFEWFHPMFLDDGKFNTTFYPEQVSYPQMIDIVTKYNPEVVWSDGEWDKSDDYWKAKEFLAWLYNSSPVKDQVVVNDRWGTGTMGKHGGFMTYSDHYDPGKLLEKKWENCMTLDKHSWGNRRDMKASEVNTAYEIIEQLARTIACNGNLLLNVGPNMHGQIPAIFEDRLEEIGRFVNITSEAIFGTRPWIHQNDTSASNVWYVEFQQLSTHVFSGILPNIHRERSH,not soluble
11,MGNNQPGGMYKRDRPYDSEKSGSHSRSRGGIPSSSPSNEDECPVQMKIAKGDDKSKFPVVFKWNINNATPRQVYICGSWDGWNTKIPLVKSTSDFSTIVDLEPGKHEYKFMVDSKWVVDDNQQKTGNNLGGENNVVMIDEADFEVFDALDKDLASSNAGEALRNSHPTKESHDTPNDRELEKLHQFGQETPTRVDFNKAAAPPVLPPHLLQVILNKDTPVQCDPNVLPEPDHVMLNHLYALSIKDGVMVLSATHRYRKKFVTTLLYKPI,soluble
12,MGSDKIHHHHHHMRRTDKKKTFGQQSSKVTQLADTLSQAISMKKFREGDSLPSINQLSAEYGVSRDTVFKAFLDLRERGLIDSTPGKGYYVTSQVTNVLLLLDQYTPFKEALYNSFVKHLPINYKVDLLFHQYNERLFNTIIRESVGKYNKYIVMNFDNEKFSMVLNKIHPTKLLLLDFGKFEKEKYSYICQDFDEAFYQALLMLKEKLRHYPQLVLLFSKNLKHPQSSKEYFTRFCEEQGFLCEIQEDIENLTVRKGVVYIAIKQQDVVKVVKQGRLEGLKCGKDFGLLAYNDIPSYEVIDEGITSLSIDWEMMGNEAANFVLNNVPIQKYLPTEVRLRKSL,not soluble
13,MAHHHHHHMNFEDDDDIVIPGEFLGLQAEYINGNNTYLLKDEIRSSILGQKIINKNNDKKTIISVYNLKPPSLYLPKIGDIVICKVQRVSFHMIYCYILSSHNIFTKNALKGFILKSDIHINEGELGDNFICFKQGDIIKAKVLSIGQYSSYKLSTVGSELGVIAAFNQKGEILRPVAWNLVLNINDMTFERRKASNDFSLLL,not soluble
14,LGSMAAAAAQGGGGGEPRRTEGVGPGVPGEVEMVKGQPFDVGPRYTQLQYIGEGAYGMVSSAYDHVRKTRVAIKKISPFEHQTYCQRTLREIQILLRFRHENVIGIRDILRASTLEAMRDVYIVQDLMETDLYKLLKSQQLSNDHICYFLYQILRGLKYIHSANVLHRDLKPSNLLINTTCDLKICDFGLARIADPEHDHTGFLTEYVATRWYRAPEIMLNSKGYTKSIDIWSVGCILAEMLSNRPIFPGKHYLDQLNHILGILGSPSQEDLNCIINMKARNYLQSLPSKTKVAWAKLFPKSDSKALDLLDRMLTFNPNKRITVEEALAHPYLEQYYDPTDEPVAEEPFTFAMELDDLPKERLKELIFQETARFQPGVLEAP,soluble
15,GAMATSESPDAYTESFGAHTIVKPAGPPRVGQPSWNPQRASSMPVNRYRPFAEEVEPIRLRNRTWPDRVIDRAPLWCAVDLRDGNQALIDPMSPARKRRMFDLLVRMGYKEIEVGFPSASQTDFDFVREIIEQGAIPDDVTIQVLTQCRPELIERTFQACSGAPRAIVHFYNSTSILQRRVVFRANRAEVQAIATDGARKCVEQAAKYPGTQWRFEYSPESYTGTELEYAKQVCDAVGEVIAPTPERPIIFNLPATVEMTTPNVYADSIEWMSRNLANRESVILSLHPHNDRGTAVAAAELGFAAGADRIEGCLFGNGERTGNVCLVTLGLNLFSRGVDPQIDFSNIDEIRRTVEYCNQLPVHERHPYGGDLVYTAFSGSHQDAINKGLDAMKLDADAADCDVDDMLWQVPYLPIDPRDVGRTYEAVIRVNSQSGKGGVAYIMKTDHGLSLPRRLQIEFSQVIQKIAEGTAGEGGEVSPKEMWDAFAEEYLAPVRPLERIRQHVDAADDDGGTTSITATVKINGVETEISGSGNGPLAAFVHALADVGFDVAVLDYYEHAMSAGDDAQAAAYVEASVTIASPAQPGEAGRHASDPVTIASPAQPGEAGRHASDPVTSKTVWGVGIAPSITTASLRAVVSAVNRAAR,soluble
16,MGSDKIHHHHHHAQSDGWSPKDHNLIKSVREDGRFLSSYGVVHAMLRNTEPRYAFHRDFSPKEFRKWQKGLRHAMEEIMKFPQIKNSPAPVCIKREQREGYRLEKWEFYPLPKCVSTFLVLIPDNINKPVPAILCIPGSGGNKEGLAGEPGIAPKLNDRYKDPKLTQALNFVKEGYIAVAVDNPAAGEASDLERYTLGSNYDYDVVSRYLLELGWSYLGYASYLDMQVLNWMKTQKHIRKDRIVVSGFSLGTEPMMVLGTLDTSIYAFVYNDFLCQTQERAEVMTMPDKNGRRPFPNSIRHLIPDFWKNFNFPDIVAALAPRPIILTEGGLDRDLDLVRKAYAIVGTPDNVKIYHYKKFSDPDTRKNVEYLPEGLDRNEYFRMVNVDGPNHYFKSELVVPWLRKLLEER,not soluble
17,MKHVKKEKAEKLEKERQRHIGKPLLGGPFSLTTHTGERKTDKDYLGQWLLIYFGFTHCPDVCPEELEKMIQVVDEIDSITTLPDLTPLFISIDPERDTKEAIANYVKEFSPKLVGLTGTREEVDQVARAYRVYYSPGPKDEDEDYIVDHTIIMYLIGPDGEFLDYFGQNKRKGEIAASIATHMRPYRKKS,soluble
18,GPGSMSDVDDLIEELFPKKEGGRAPPEGKGGAACEPPASQSNWDDTDEANSEAETTTRNRGTSVSLEAAASTTANVGDGRGEDFDDSDESVEETVMGGRHTVPFPPTPGNMSMACNSKCFVTNVGSGELRHPSVAQLLLTGEGKYDKCSSNEQLLLRKGAFHALKADAGNGCTDKTADEDGRKGGCPFILCRKCNYTVIRLQDAEWDDEEGKMDLYLTVRNFYPDWSRLASSLPVGQMRRGEQNTVLKTCPDSAAYCCQCSWLTVKCAQEVIDTRVTDHTKFVGKELTCCFATQLPLISGEKRRPPLWVCGGHVPKH,soluble
19,MSEIIVYTQNDCPPCTFVKNYLNEHQIDFEERNINNQQYRNEMIDFDAFSTPFILLNGNPMYHVDLDEINKVLNIQD,not soluble
20,MTKKYSRFLPSEKSFNIDNFPYYWVTQVHSQYVHNIDNVLKRYGLDNSRRRILLALNIKQNASVSELSEMIISKMSTTTKIVYRLKDEGFVNTYSCENDARITRVNLTEQGKEMIHKINSLTGAVLEQSFEGLTPLQIEKMIDGLKIIFKNLSS,not soluble
21,MGSDKIHHHHHHMSRVACAYIIRKATGEHECCETLEEHVQRSLEVWLGRLKKCYSSAVNRIIYSQGSQTLASVLGDPVAVAIVLHDIGKAVPAYQKKRIMRGRVQYRHELVSGALSLLAIEKAADMAGIGRNDRGLYVFEVPLAVMMHHESISMGVLAGELGERFVTLSVASLMLEDYYDGELWGLERLARTVKNMGAVGDAVVDVLKILSGSPPSRKEVLIALGRLKAYSLSGDTLSRLSARARVAGILHPLVVADSIAANEGRKRCNGDGGTWIVKRALGRDSQEPAEPCLS,not soluble
22,MGSDKIHHHHHHWQVTGSKTTLDGVEAARMSGIESYPLRLEPELVCEADDLDALLDVDALVITLPARRSGPGEDFYLQAMQELVDSALAYRIPRIIFTSSTSVYGDAQGVVKENTPRNPVTASGRTLKELEDWLHNLPGTSVDILRLAGLVGPGRHPGRFFAGKTAPDGQHGVNLVHLEDVVGAITLLLQAPKGGHIYNICAPAHPARNVFYPQMTRLLGMAPPHFRDAPDNGKGKIIDGSRICNELGFEYQYPDPLVMPME,not soluble

# — the DeepSol protein solubility set
